Results taken from IntAct's records for PubMed 20169075.

B1: Sec-independent protein translocase protein TatC (Escherichia coli (strain K12)), P69423 (parent)
chain: MSVEDTQPLITHLIELRKRLLNCIIAVIVIFLCLVYFANDIYHLVSAPLIKQLPQGSTMIATDVASPFFTPIKLTFMVSLILSAPVILYQVWAFIAPALYKHERRLVVPLLVSSSLLFYIGMAFAYFVVFPLAFGFLANTAPEGVQVSTDIASYLSFVMALFMAFGVSFEVPVAIVLLCWMGITSPEDLRKKRPYVLVGAFVVGMLLTPPDVFSQTLLAIPMYCLFEIGVFFSRFYVGKGRNREEENDAEAESEKTEE
B2: Dimethyl sulfoxide reductase DmsA (Escherichia coli (strain K12)), P18775 (parent)
chain: MKTKIPDAVLAAEVSRRGLVKTTAIGGLAMASSALTLPFSRIAHAVDSAIPTKSDEKVIWSACTVNCGSRCPLRMHVVDGEIKYVETDNTGDDNYDGLHQVRACLRGRSMRRRVYNPDRLKYPMKRVGARGEGKFERISWEEAYDIIATNMQRLIKEYGNESIYLNYGTGTLGGTMTRSWPPGNTLVARLMNCCGGYLNHYGDYSSAQIAEGLNYTYGGWADGNSPSDIENSKLVVLFGNNPGETRMSGGGVTYYLEQARQKSNARMIIIDPRYTDTGAGREDEWIPIRPGTDAALVNGLAYVMITENLVDQAFLDKYCVGYDEKTLPASAPKNGHYKAYILGEGPDGVAKTPEWASQITGVPADKIIKLAREIGSTKPAFISQGWGPQRHANGEIATRAISMLAILTGNVGINGGNSGAREGSYSLPFVRMPTLENPIQTSISMFMWTDAIERGPEMTALRDGVRGKDKLDVPIKMIWNYAGNCLINQHSEINRTHEILQDDKKCELIVVIDCHMTSSAKYADILLPDCTASEQMDFALDASCGNMSYVIFNDQVIKPRFECKTIYEMTSELAKRLGVEQQFTEGRTQEEWMRHLYAQSREAIPELPTFEEFRKQGIFKKRDPQGHHVAYKAFREDPQANPLTTPSGKIEIYSQALADIAATWELPEGDVIDPLPIYTPGFESYQDPLNKQYPLQLTGFHYKSRVHSTYGNVDVLKAACRQEMWINPLDAQKRGIHNGDKVRIFNDRGEVHIEAKVTPRMMPGVVALGEGAWYDPDAKRVDKGGCINVLTTQRPSPLAKGNPSHTNLVQVEKV
partner: B1 chain
B3: Dimethyl sulfoxide reductase DmsA (Escherichia coli (strain K12)), P18775 (parent)
chain: B2 chain
partner: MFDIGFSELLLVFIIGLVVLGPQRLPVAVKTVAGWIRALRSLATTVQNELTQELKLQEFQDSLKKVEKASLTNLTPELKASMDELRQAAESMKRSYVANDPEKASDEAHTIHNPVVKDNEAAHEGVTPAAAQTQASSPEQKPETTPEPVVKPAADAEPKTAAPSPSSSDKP
B4: Tat proofreading chaperone DmsD (Escherichia coli (strain K12)), P69853 (parent)
chain: MTHFSQQDNFSVAARVLGALFYYAPESAEAAPLVAVLTSDGWETQWPLPEASLAPLVTAFQTQCEETHAQAWQRLFVGPWALPSPPWGSVWLDRESVLFGDSTLALRQWMREKGIQFEMKQNEPEDHFGSLLLMAAWLAENGRQTECEELLAWHLFPWSTRFLDVFIEKAEHPFYRALGELARLTLAQWQSQLLIPVAVKPLFR

Variants of: B1
Details: with dmsa_ecoli dmsA, P18775

effect of a mutation on the interaction | Variant
decreasing interaction | MSVEDTQPLITHLIELRKRLLNCIIAVIVIFLCLVYFANDIYHLVSAPLIKQLPQGSTMIATDVASPFFTPIKLTFMVSLILSAPVILYQVWAFIAPALYKHRRRLVVPLLVSSSLLFYIGMAFAYFVVFPLAFGFLANTAPEGVQVSTDIASYLSFVMALFMAFGVSFEVPVAIVLLCWMGITSPEDLRKKRPYVLVGAFVVGMLLTPPDVFSQTLLAIPMYCLFEIGVFFSRFYVGKGRNREEENDAEAESEKTEE [E103R]
decreasing interaction | MSVEDTQPLITHLIELRKRLLNCIIAVIVIFLCLVYFANDIYHLVSAALIKQLPQGSTMIATDVASPFFTPIKLTFMVSLILSAPVILYQVWAFIAPALYKHERRLVVPLLVSSSLLFYIGMAFAYFVVFPLAFGFLANTAPEGVQVSTDIASYLSFVMALFMAFGVSFEVPVAIVLLCWMGITSPEDLRKKRPYVLVGAFVVGMLLTPPDVFSQTLLAIPMYCLFEIGVFFSRFYVGKGRNREEENDAEAESEKTEE [P48A]

Variants of: B1
Details: with dmsd_ecoli dmsD

effect of a mutation on the interaction | Variant
disrupting interaction | MSVEDTQPLITHLIELRKRLLNCIIAVIVIFLCLVYFANDIYHLVSAPLIKQLPQGSTMIATDVASPFFTPIKLTFMVSLILSAPVILYQVWAFIAPALYKHRRRLVVPLLVSSSLLFYIGMAFAYFVVFPLAFGFLANTAPEGVQVSTDIASYLSFVMALFMAFGVSFEVPVAIVLLCWMGITSPEDLRKKRPYVLVGAFVVGMLLTPPDVFSQTLLAIPMYCLFEIGVFFSRFYVGKGRNREEENDAEAESEKTEE [E103R]
decreasing interaction | MSVEDTQPLITHLIELRKRLLNCIIAVIVIFLCLVYFANDIYHLVSAALIKQLPQGSTMIATDVASPFFTPIKLTFMVSLILSAPVILYQVWAFIAPALYKHERRLVVPLLVSSSLLFYIGMAFAYFVVFPLAFGFLANTAPEGVQVSTDIASYLSFVMALFMAFGVSFEVPVAIVLLCWMGITSPEDLRKKRPYVLVGAFVVGMLLTPPDVFSQTLLAIPMYCLFEIGVFFSRFYVGKGRNREEENDAEAESEKTEE [P48A]

Variants of: B2
Details: with tatc_ecoli tatC, P69423

effect of a mutation on the interaction | Variant
increasing interaction | R16K;R17K

Variants of: B3
Details: with tatb_ecoli tatB

effect of a mutation on the interaction | Variant
increasing interaction | R16K;R17K

Variants of: B4
Details: with dmsa_ecoli dmsA

effect of a mutation on the interaction | Variant
increasing interaction | MTHFSQQDNFSVAARVLGALFYYAPESAEAAPLVAVLTSDGWETQWPLPEASLAPLVTAFQTQCEETHAQAHQRYFVGPWALPSPPWGSVWLDRESVLFGDSTLALRQWMREKGIQFEMKQNEPEDHFGSLLLMAAWLAENGRQTECEELLAWHLFPWSTRFLDVFIEKAEHPFYRALGELARLTLAQWQSQLLIPVAVKPLFR [W72H;L75Y]
